Experimental data taken from publication PMC5892705 (Science signaling, 2017).

Assays:
[1] = biological target: murine vasopressin V2 receptor (mouse, UniProt O88721 1-371); experiment: radioligand binding
human oxytocin receptor = biological target: T1, human oxytocin receptor (human, UniProt P30559 1-389); experiment: cell-based or functional assay
T1 sequence: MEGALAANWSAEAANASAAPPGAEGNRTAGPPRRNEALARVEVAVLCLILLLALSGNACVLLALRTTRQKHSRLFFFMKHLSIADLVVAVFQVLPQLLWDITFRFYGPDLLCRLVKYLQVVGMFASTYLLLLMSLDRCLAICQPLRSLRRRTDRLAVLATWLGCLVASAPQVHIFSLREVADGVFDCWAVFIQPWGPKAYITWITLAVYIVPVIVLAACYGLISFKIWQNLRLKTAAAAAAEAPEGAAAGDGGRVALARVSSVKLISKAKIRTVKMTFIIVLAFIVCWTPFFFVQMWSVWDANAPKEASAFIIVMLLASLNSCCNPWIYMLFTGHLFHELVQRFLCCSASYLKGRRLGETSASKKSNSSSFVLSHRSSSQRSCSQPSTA

murine oxytocin receptor = biological target: T2, murine oxytocin receptor (mouse, UniProt P97926 1-388); experiment: cell-based or functional assay
T2 sequence: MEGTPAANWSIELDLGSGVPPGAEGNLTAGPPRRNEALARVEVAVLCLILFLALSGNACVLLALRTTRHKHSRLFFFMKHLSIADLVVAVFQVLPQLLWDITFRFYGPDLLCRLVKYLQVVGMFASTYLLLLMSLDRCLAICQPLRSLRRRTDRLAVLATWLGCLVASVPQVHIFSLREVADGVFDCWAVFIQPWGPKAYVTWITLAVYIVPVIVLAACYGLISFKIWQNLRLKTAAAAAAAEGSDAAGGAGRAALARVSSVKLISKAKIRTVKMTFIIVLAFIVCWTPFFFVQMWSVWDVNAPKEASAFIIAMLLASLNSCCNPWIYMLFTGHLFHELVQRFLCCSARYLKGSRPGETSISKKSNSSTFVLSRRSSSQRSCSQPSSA

[2] = biological target: human vasopressin V1a receptor (human, UniProt P37288 1-418); experiment: cell-based or functional assay
human vasopressin V1a receptor, sequence (P37288 whole entry): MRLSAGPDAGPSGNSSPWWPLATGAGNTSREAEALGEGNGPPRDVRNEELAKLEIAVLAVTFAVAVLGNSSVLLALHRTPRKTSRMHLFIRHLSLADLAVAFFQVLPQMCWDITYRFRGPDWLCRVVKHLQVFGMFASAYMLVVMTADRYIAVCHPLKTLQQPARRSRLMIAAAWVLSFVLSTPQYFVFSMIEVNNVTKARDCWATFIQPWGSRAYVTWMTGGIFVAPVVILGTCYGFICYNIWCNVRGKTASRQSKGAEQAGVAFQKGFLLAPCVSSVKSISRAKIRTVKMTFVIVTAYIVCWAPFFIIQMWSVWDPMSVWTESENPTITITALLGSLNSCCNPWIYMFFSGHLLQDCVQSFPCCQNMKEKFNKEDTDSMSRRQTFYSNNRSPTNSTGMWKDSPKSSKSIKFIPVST

murine vasopressin V2 receptor, sequence (O88721 whole entry): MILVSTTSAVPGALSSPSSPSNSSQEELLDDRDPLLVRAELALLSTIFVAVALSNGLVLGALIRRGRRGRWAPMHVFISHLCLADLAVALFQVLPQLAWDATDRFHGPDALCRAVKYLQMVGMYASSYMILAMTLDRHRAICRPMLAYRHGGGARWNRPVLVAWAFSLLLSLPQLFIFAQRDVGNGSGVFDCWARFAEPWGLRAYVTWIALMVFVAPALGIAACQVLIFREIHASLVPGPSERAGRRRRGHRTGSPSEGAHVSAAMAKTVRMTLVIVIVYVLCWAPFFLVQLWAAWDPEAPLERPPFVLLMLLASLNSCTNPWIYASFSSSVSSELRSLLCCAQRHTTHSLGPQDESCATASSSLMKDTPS

Ki1 (bi-phasic binding curve) [1]: 0.71 nM | HTRF IP1 accumulation in transfected COS-1 cells, EC50 (human oxytocin receptor): 38 nM | tissue bath, contraction amplitude of strips of pregnant human myometrium, EC50 (human oxytocin receptor): 5.89 nM | HTRF IP1 accumulation in transfected HEK293 cells, Emax (murine oxytocin receptor): 43% | FLIPR Ca2+ mobilization, EC50 [2]: > 10000 nM
B1: [Se-Se]-OT-OH (peptide)
chain: UYIQNUPLG
modifications: selenocysteine at positions 1 and 6, joined by a diselenide bond; C-terminal acid instead of the amide
